Test results as given in publication PMC4178188, “RIG-I Self-Oligomerization Is Either Dispensable or Very Transient for Signal Transduction”.

T1: RIG-I (hRIG-I) (human, UniProt O95786 1-925)
T1 sequence: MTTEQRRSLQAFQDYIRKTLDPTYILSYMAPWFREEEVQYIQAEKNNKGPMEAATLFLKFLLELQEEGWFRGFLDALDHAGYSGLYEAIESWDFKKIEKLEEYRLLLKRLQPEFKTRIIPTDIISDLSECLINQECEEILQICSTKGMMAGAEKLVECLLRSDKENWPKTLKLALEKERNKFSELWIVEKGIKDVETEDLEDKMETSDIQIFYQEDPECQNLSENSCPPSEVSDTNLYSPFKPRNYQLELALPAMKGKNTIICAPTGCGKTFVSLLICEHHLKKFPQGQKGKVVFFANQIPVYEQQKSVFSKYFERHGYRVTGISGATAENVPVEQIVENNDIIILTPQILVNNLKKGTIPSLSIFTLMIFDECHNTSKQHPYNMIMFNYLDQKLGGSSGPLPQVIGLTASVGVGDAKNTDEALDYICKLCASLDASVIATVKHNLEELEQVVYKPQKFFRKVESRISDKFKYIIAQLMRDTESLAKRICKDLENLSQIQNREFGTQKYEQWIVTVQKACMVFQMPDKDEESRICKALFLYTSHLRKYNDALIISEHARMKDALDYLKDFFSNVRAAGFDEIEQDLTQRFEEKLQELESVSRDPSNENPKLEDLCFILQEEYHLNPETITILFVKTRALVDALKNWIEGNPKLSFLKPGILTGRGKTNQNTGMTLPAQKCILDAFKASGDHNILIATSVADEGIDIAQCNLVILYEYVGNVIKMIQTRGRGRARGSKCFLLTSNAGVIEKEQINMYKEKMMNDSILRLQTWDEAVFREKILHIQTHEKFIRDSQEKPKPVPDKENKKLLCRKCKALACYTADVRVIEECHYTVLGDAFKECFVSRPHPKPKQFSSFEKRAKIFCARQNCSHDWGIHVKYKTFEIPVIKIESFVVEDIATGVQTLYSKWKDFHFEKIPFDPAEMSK

B1: Rabies leader 5'ppp-RNA (RabV-L) (ssRNA)
RNA: GGACGCUUAACAACAAAACCAGAGAAGAAAAAGACAGCGUCAAUUGCAAACGAAAAAUGUGC
modifications: 5'-triphosphate
B2: Measles leader 5'ppp-RNA (MeV-L) (ssRNA)
RNA: GGACCAAACAAAGUUGGGUAAGGAUAGAUCAAUCAAUGAUCAUAUUCUAGUACACUUGAAUUC
modifications: 5'-triphosphate

Tests used:
RIG-I (hRIG-I) [1] = target: T1, RIG-I (hRIG-I); assay: SEC-MALLS; 2 mM ATP analogue; complex 110 kDa, 1:1; settings: protein: recombinant; double-stranded side products or secondary structure possible
RIG-I (hRIG-I) [2] = target: T1, RIG-I (hRIG-I); assay: SEC-MALLS; 2 mM ATP analogue; complex 113 kDa, 1:1; SEC-MALLS: 37 mM RIG-I, 40 mM RNA (units as printed), 2 mM ATP analogue, S200 column; buffer, salt, pH and temperature not in the material; settings: protein: recombinant; double-stranded side products or secondary structure possible

Row | Binder | binding result (RIG-I (hRIG-I) [1]) | binding result (RIG-I (hRIG-I) [2])
1 | B1 | binds | 
2 | B2 |  | binds
